Assay results published in US20190375786A1, “STABLE PEPTIDES AND METHODS OF USE THEREOF” (Fred Hutchinson Cancer Research Center, priority 2016, published 2019).
No end group written: not given here.

Key:
[1] = biological target: pepsin (Sus scrofa, UniProt P00791); test: Pepsin digestion resistance in simulated gastric fluid, RP-HPLC; format: in vitro ADME, porcine; design: purchased Sigma Aldrich P7012; settings: 500 U pepsin (5000 U/ml) in SGF, 30 min at room temperature, with or without DTT; HPLC
Chain of pepsin (P00791 60-385): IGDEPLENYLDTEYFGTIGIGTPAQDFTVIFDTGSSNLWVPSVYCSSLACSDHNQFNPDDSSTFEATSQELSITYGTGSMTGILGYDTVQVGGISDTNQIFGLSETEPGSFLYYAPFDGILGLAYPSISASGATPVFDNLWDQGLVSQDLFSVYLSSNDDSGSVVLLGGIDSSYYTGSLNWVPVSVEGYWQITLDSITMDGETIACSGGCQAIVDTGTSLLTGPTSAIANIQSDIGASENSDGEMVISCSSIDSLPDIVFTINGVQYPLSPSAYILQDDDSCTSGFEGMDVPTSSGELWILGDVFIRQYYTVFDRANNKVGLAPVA
Procedure, shortened: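 Digestion resistance read by reversed-phase HPLC (C-18, 0.1% TFA, 5–45% acetonitrile over 10 min; 214/280 nm) after 12.5 μg peptide spent 30 min at 37.5 °C in pH 1.05 simulated gastric fluid, with or without 500 U/ml pepsin. Some samples quenched with Tris base and DTT.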

[2] = Stability in simulated gastric fluid (SGF, pH 1.05), RP-HPLC; format: physicochemical; settings: HPLC vs non-reduced peptide
Description: Peptides were first suspended in 500 ul of ddH2O to a stock concentration of 2 mg/ml. Reactions were prepared by adding 12.5 ug of peptide from the stock solution to a 10 mM solution of DTT in PBS and allowed to incubate at room temperature for 30 minutes. Other reactions were prepared with 12.5 μg peptide with or without 500 U/ml pepsin in simulated gastric fluid (SGF; pH 1.05; […] sodium chloride in 0.7% (v/v) hydrochloric acid) and were incubated for 30 minutes at 37.5° C. Some reactions were quenched with a final concentration of 100 mM Tris base and 10 mM dithiothreitol (DTT). Some reactions were performed in all of the above components, including simulated gastric fluid, pepsin, Tris, and DTT (referred to as SPTD). Reversed phase HPLC (RP-HPLC) was run on samples using an Agilent 1260 HPLC equipped with a C-18 Poroshell 120B column. Sample were analyzed by a gradient method with a mobile phase of Solvent A (water with 0.1% TFA) and Solvent B (acetonitrile with 0.1% TFA). Solvent B was ramped up from 5%-45% of the mobile phase over a period of 10 minutes. Peptides were detected at an absorbance of 214 nm and 280 nm.
This example illustrates peptide stability in biological conditions including in the presence of reducing agents, proteases, oxidative conditions, acidic conditions, and simulated gastric fluids. […] Various peptides were suspended in 500 μl of ddH2O at a stock concentration of 2 mg/ml. This was then diluted in accord with the reaction conditions to prevent adverse buffering effects. Reactions were prepared with 12.5 μg peptide dissolved in solution and, in some samples, additionally suspended in a 10 mM solution of DTT, simulated gastric fluid (pH 1.05; […] sodium chloride in 0.7% (v/v) hydrochloric acid), 500 U pepsin (5000 U/ml pepsin), 50 U trypsin (500 U/ml trypsin) with 1 mg/ml inhibitor in PBS, or a combination of any of these conditions. All protease reactions were incubated for 30 min at room temperature and then quenched. Pepsin reactions were quenched by adding Tris base to a final concentration of 0.075 M. Trypsin reactions were quenched by adding excess soybean trypsin inhibitor. RP-HPLC was then run on samples using an Agilent 1260 HPLC equipped with a C-18 Poroshell 120B column. Sample were analyzed by a gradient method with a mobile phase of Solvent A (water with 0.1% TFA) and Solvent B (acetonitrile with 0.1% TFA). Solvent B was ramped up from 5%-45% of the mobile phase over a period of 10 minutes.

[3] = biological target: trypsin (Sus scrofa, UniProt P00761); test: Trypsin digestion resistance of soluble peptide, RP-HPLC; format: in vitro ADME, porcine; design: purchased Sigma Aldrich 6567; settings: 50 U trypsin (500 U/ml), 30 min at room temperature, with or without 10 mM DTT; HPLC
Chain of trypsin (P00761 9-231): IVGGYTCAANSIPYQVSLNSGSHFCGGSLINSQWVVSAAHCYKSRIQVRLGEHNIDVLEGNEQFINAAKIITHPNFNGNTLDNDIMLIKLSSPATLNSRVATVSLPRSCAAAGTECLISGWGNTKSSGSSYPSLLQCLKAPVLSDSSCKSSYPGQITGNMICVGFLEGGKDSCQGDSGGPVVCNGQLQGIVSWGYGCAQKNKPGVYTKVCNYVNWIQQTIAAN
Procedure, shortened: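 Read-out was RP-HPLC (C-18, water/acetonitrile with 0.1% TFA, 5-45% over 10 min) of peptide left after trypsin treatment. Digest: 12.5 μg peptide, 500 U/ml porcine trypsin, PBS, 37.5° C for 30 min, stopped by soybean trypsin inhibitor; samples then reduced (10 mM DTT) or left non-reduced.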

[4] = Combined resistance grouping of hitchin peptides (FIG. 27, from Table 2 data); format: physicochemical; settings: FIG. 27 grouping of hitchin peptides
Description: As shown by the data in TABLE 2, the tested peptides of the present disclosure show a range of resistance to proteases, reduction, and high temperature. The peptides were classified as high, medium, or low for each condition. […] For example, after a peptide is treated at 100° C., if the HPLC peak of the peptide is mostly absent as compared to HPLC peak of the peptide not treated at 100° C., then the peptide is classified as low or having low resistance to 100° C. After a peptide is treated with reducing conditions, if there is no or very minimal HPLC peak that overlaps with the HPLC peak of the peptide not treated with reducing conditions, then the peptide is classified as low or having low resistance to reducing conditions.
The peptides with the highest resistance data were further analyzed. […] The six peptides that were further tested were peptides comprising the sequences of SEQ ID NO: 27, SEQ ID NO: 24, SEQ ID NO: 6, SEQ ID NO: 10, SEQ ID NO: 12, and SEQ ID NO: 57, which were all hitchins. […] FIG. 27C is a sequence analysis of SEQ ID NO: 27, SEQ ID NO: 24, SEQ ID NO: 6, SEQ ID NO: 10, SEQ ID NO: 12, and SEQ ID NO: 57 from FIG. 27B. FIG. 27C identifies which amino acids are present at each position in SEQ ID NO: 27, SEQ ID NO: 24, SEQ ID NO: 6, SEQ ID NO: 10, SEQ ID NO: 12, and SEQ ID NO: 57. For example, at position one, all peptide sequences comprise a G amino acid residue; at position two, all peptide sequences comprise an S amino acid residue; at position three, all peptide sequences comprise either G, Q, or V amino acid, or null; and at position four, all peptide sequences comprise V, R, or K amino acid, or null. […] SEQ ID NO: 167 and SEQ ID NO: 168 describe sequences of peptides that are particularly resistant to reduction, pepsin, 75° C., and 100° C., which would typically degrade peptides. […] Additionally, SEQ ID NO: 169 describes sequences of peptides that are also particularly resistant to trypsin.

[5] = Resistance to elevated temperature, HPLC; format: physicochemical; settings: HPLC
Procedure, shortened: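 Peptides were incubated at room temperature, 70° C or 100° C for one hour in ddH2O; another protocol used 70° C, 75° C or 100° C for one hour in 0.5 mM PBS, then pelleting and analysis of the supernatant. Remaining peptide was measured by C-18 RP-HPLC, 5–45% acetonitrile/0.1% TFA over 10 min.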

[6] = Resistance to reduction by DTT, RP-HPLC; format: physicochemical; settings: 10 mM DTT; HPLC vs non-reduced peptide
Procedure, shortened: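 Peptide (12.5 μg from a 2 mg/ml stock, or 0.015 mM final in PBS) was held 30 min at room temperature with or without 10 mM DTT. Reduced and non-reduced forms were compared by C-18 RP-HPLC using a 5–45% acetonitrile/0.1% TFA gradient over 10 min, with detection at 214 and 280 nm.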

[7] = Resistance to reduction by reduced glutathione (GSH), HPLC; format: physicochemical; settings: 10 mM reduced glutathione (GSH); HPLC vs non-reduced peptide
Description: This example describes stability of designed or engineered peptides under reducing conditions. Peptides that are designed or engineered to interact with one or more target proteins in the cell, such as proteins in the nucleus, are exposed to reducing conditions in the cytosolic compartment of cells. Thus, it is advantageous for peptides of this disclosure to display stability in reducing conditions. Stability of peptides of this disclosure was tested in 10 mM DTT and 10 mM GSH. GSH is a more physiologically relevant reducing agent for testing peptide stability in intracellular conditions. An example of a peptide-target protein interaction is a peptide binding to a TEAD protein.

[8] = Intravenous and oral administration of 14C-radiolabeled peptide to mice; plasma, urine, feces by liquid scintillation counting and HPLC; format: in vivo, female Harlan athymic nude mice; settings: mouse
Description: This example describes oral and intravenous administration of peptides of this disclosure. […] A peptide of SEQ ID NO: 27 was radiolabeled by the methods described in EXAMPLE 4, and was then administered intravenously or orally to female Harlan athymic nude mice, 6-8 weeks of age. Radiolabeled peptides of SEQ ID NO: 27 (SEQ ID NO: 27-r) was administered intravenously (IV) at a dose of 4.8 μCi/20 nmol. SEQ ID NO: 27-r was administered orally (PO) by oral gavage at a dose of 24 μCi/100 nmol. Mice were euthanized at various time points by CO2 asphyxiation and biological fluids were collected, including blood, urine, and feces. Samples were analyzed by RP-HPLC and liquid scintillation counting to quantify the concentration or dose of radioactivity and/or intact peptide recovered in plasma, urine, and feces. Urine was collected by abdominal palpitation immediately before CO2 asphyxiation. Blood was collected by cardiac puncture immediately after CO2 asphyxiation and centrifuged to separate plasma. Feces were collected either before or after CO2 asphyxiation by palpitation of the colon. Samples were analyzed by HPLC to quantify the concentration or dose of intact peptide recovered in plasma, urine, and feces. For HPLC analysis, urine samples were first diluted at a 1:20 ratio in water and plasma samples were diluted at a 1:5 ratio in water. Feces samples were dissolved in Tris buffer, centrifuged to remove the insoluble fraction, and supernatants were diluted at a 1:1 ratio in water.

[9] = SYPRO Orange melting assay; format: physicochemical; settings: heating from 20° C. to 95° C.
Description: Protein secondary structures were assessed using Circular Dichrosim (CD). CD spectra were measured with a Jasco J-720W spectropolarimeter using a 1.0 mm path length cell. Protein samples in 10 mM phosphate buffer (pH=7.4) were at 25-30 μM protein concentration. Samples were analyzed at wavelength ranges of […]. Data were expressed in terms of relative ellipticity [θ]; (mdeg). To determine thermal stability of proteins, samples were subjected to incremental increase in temperature at a ramp of 2° C./min from 20° C. to 95° C. Stability and protein unfolding were monitored at 220 and 215 for α-helix and β-sheet secondary structures, respectively. Data are expressed in terms of relative ellipticity [θ], reported in mdeg. For SEQ ID NO: 43 and its point mutant variants, no changes to the α-helix-dominated structure were observed upon heating up to 95° C. […] Additionally, protein melting temperature (Tm) determination was performed by monitoring protein unfolding using SYPRO Orange dye (Molecular Probes). In brief, 0.1 mg/mL protein sample in 20 μL total volume PBS buffer were mixed with 24, of 10× SYPRO Orange dye. Dye intercalation into the hydrophobic protein core following protein unfolding was assayed using the C1000 Touch Thermal Cycler with CFX96 Deep Well Real-Time System (BioRad). Samples were heated from 20° C. to 95° C. with stepwise increments of 0.5° C. per minute and a 5 sec hold step for every point, followed by fluorescence reading. Tm were calculated by analyzing the derivatives of Relative florescence Units (RFU). FIG. 17D illustrates this SYPRO Orange melting assay of Peptides.

In the case of “GSGVPINVRSRGSRDSLDPSRRAGMRFGRSINSRSHSTP [SEQ ID NO: 177, reference compound]”, the “resistance to pepsin, Example 7 conditions (in words)” value [1] is reported as “degraded”, the “stability in simulated gastric fluid / low pH (in words)” value [2] is reported as “stable” and the “resistance to trypsin, Example 7 conditions (in words)” value [3] is reported as “degraded”.

For “GSISIGIKCSPSIDLCEGQCRIRKYFTGYCSGDTCHCSG [SEQ ID NO: 3]”, the “combined resistance to reduction, pepsin and elevated temperatures such as 75° C. and 100° C.” value [4] was “not highly resistant”, the “resistance to incubation at 70° C. (in words)” value ([5]; 70° C. for 1 hour) was “resistant” and the “resistance to incubation at 100° C. (in words)” value ([5]; 100° C. for 1 hour) was “various degrees of degradation”.

In the case of “GSNFKVEGACSKPCRKYCIDKGARNGKCINGRCHCYY [SEQ ID NO: 5]”, the “resistance to reduction by DTT (in words)” value [6] is reported as “resistant” and the “combined resistance to reduction, pepsin and elevated temperatures such as 75° C. and 100° C.” value [4] is reported as “not highly resistant”.

With “PDEYIERAKECCKKGDIQCCLRYFEESGDPNVMLICLFCP [SEQ ID NO: 122]” the “resistance to GSH reducing conditions” value [7] was “resistant”.

With “SEQ ID NO: 27-r: radiolabeled peptide of SEQ ID NO: 27, by reductive methylation with 14C formaldehyde (GSGVPINVKCRGSRDCLDPCKKAGMRFGKCINSKCHCTP; cysteine pairing not given here; also: radiolabeled by reductive methylation with 14C formaldehyde (sites not given here))” the radioactivity in urine ([8]; IV 20 nmol and PO 100 nmol) was “some radioactivity from the administered peptide was detected”, the “time up to which radioactive signal from the dosed peptide was present in plasma” value ([8]; IV 20 nmol and PO 100 nmol) was “at least 50 hours” and the “plasma radioactivity as percent of the administered dose” value ([8]; IV, 20 nmol (4.8 μCi 14C)) was roughly 10%. For the same molecule, the “nature of radioactively detected peptide in plasma (intact vs fragments)” value ([8]; PO 100 nmol, tandem HPLC and liquid scintillation counting) was “nearly all of the radioactively detected peptide in plasma was due to fragments”, the “intact peptide in feces” value ([8]; PO 100 nmol, tandem HPLC and liquid scintillation counting, 3 and 8 hours) was “detected” and the “plasma radioactivity as percent of the administered dose” value ([8]; PO by gavage, 100 nmol (24 μCi 14C)) was roughly 1%.

B1: HuScn: Human siderocalin, reference protein in the SYPRO Orange melting assay (protein, UniProt P80188 21-198, looked up)
Neutrophil …: QDSTSDLIPAPPLSKVPLQQNFQDNQFQGKWYVVGLAGNAILREDKDPQKMYATIYELKEDKSYNVTSVLFRKKKCDYWIRTFVPGCQPGEFTLGNIKSYPGLTSYLVRVVSTNYNQHAMVFFKKVSQNREYFKITLYGRTKELTSELKENFIRFSKSLGLPENHIVFPVPIDQCIDG
For B1, the “melting temperature (Tm)” value [9] was 79 °C.
